According to paper PMC6764022 (ACS Nano, 2019):
Where no end group is shown, it is not given here. [ ]: non-standard residue; d: D form. Lys(N3) = [N-]=[N+]=NCCCC[C@H](N)C(=O)O

T1: B3: DNA origami B decorated with three β-CC-Di-KE (azidonorleucine (Z) at the N-terminus, joined to oligonucleotide tag β, which is hybridised to a handle of DNA origami B)
T1 chain: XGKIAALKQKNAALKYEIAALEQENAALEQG

T2: B2: DNA origami B decorated with two β-CC-Di-KE (azidonorleucine (Z) at the N-terminus, joined to oligonucleotide tag β, which is hybridised to a handle of DNA origami B)
T2 chain: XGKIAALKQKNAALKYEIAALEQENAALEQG


Assays:
Assay in all cases: counting of free and bound DNA origami nanostructures in electron micrographs (TEM); peptides displayed on DNA origamis A and B through oligonucleotide tags; gel-purified An and Bn mixed, total monomer concentrations 0.25-2.4 nM; background of random coincidences subtracted; Kd from the slope of a linear fit through the origin; additional systematic error of approximately 20%
[1] = target: T1, B3: DNA origami B decorated with three …; conditions: both partners purified
[2] = target: the molecule itself
[3] = target: T2, B2: DNA origami B decorated with two …; conditions: both partners purified

Binder	Kd [1]	Kd [2]	Kd [3]
GEIAALEQENAALEQKIAALKWKNAALKQG[Lys(N3)]-NH2 (other, also: tag α hybridised to handle of DNA origami A, three copies per origami) [A3: DNA origami A decorated with three CC-Di-EK-α]	0.7 ± 0.1 nM	24 ± 4 nM	
GEIAALEQENAALEQKIAALKWKNAALKQG[Lys(N3)]-NH2 (other, not fully specified; also: tag α hybridised to handle of DNA origami A, two copies per origami) [A2: DNA origami A decorated with two CC-Di-EK-α]			25 ± 3 nM
